Source: paper PMC3794620, “The Pyridoxal 5′-Phosphate (PLP)-Dependent Enzyme Serine Palmitoyltransferase (SPT): Effects of the Small Subunits and Insights from Bacterial Mimics of Human hLCB2a HSAN1 Mutations” (BioMed Research International, 2013)

Tests used:
Sp SPT [1] = target: T1, Sp SPT (Sphingomonas paucimobilis, UniProt Q93UV0); assay: UV-visible spectroscopy of internal aldimine; assay type: binding; settings: covalent (imine to Lys265), 40 μM enzyme, 20 mM potassium phosphate pH 7.5, 150 mM NaCl, 25 °C
T1 construct: full-length soluble enzyme, pET28a, C-terminal His6 tag, E. coli BL21(DE3), Ni-NTA and gel filtration, homodimer ~90 kDa, PLP holoform
T1 sequence (Q93UV0 1-420): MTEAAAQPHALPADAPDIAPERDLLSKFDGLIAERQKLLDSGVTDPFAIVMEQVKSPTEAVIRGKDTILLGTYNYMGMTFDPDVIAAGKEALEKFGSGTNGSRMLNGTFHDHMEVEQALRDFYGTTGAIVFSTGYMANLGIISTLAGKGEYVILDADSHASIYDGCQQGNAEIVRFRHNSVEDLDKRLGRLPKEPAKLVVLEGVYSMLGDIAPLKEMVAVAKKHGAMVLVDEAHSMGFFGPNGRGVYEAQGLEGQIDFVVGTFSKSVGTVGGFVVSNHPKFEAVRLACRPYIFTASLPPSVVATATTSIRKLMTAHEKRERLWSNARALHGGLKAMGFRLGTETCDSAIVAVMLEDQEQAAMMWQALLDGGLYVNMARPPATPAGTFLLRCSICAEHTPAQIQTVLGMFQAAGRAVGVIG

Sp SPT [2] = target: T1, Sp SPT; assay: UV-visible titration, absorbance change at […] nm (external aldimine); assay type: binding; settings: read-out: Kd ^L-ser
Sp SPT [3] = target: T2, Sp SPT (Sphingomonas paucimobilis, UniProt Q93UV0, G385F); assay: as above; assay type: binding; settings: read-out: Kd ^L-ser
T2 construct: full-length soluble enzyme, pET28a, C-terminal His6 tag, E. coli BL21(DE3), Ni-NTA and gel filtration, homodimer ~90 kDa, PLP holoform
T2 sequence (Q93UV0 1-420 G385F): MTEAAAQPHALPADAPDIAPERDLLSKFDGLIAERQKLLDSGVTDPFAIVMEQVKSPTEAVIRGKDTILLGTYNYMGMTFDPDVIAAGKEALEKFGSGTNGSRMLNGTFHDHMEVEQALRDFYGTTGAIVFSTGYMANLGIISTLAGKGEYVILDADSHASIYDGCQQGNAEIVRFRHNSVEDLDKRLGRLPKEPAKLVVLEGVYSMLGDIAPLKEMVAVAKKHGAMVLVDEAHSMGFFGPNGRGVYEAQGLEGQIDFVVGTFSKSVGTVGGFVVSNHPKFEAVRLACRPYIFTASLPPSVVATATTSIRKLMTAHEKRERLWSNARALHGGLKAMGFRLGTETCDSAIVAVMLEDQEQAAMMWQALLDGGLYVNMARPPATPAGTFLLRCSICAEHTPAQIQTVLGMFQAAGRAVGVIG

Sp SPT [4] = target: T3, Sp SPT (Sphingomonas paucimobilis, UniProt Q93UV0, V246M); assay: as above; assay type: binding; settings: read-out: Kd ^L-ser
T3 construct: full-length soluble enzyme, pET28a, C-terminal His6 tag, E. coli BL21(DE3), Ni-NTA and gel filtration, homodimer ~90 kDa, PLP holoform
T3 sequence (Q93UV0 1-420 V246M): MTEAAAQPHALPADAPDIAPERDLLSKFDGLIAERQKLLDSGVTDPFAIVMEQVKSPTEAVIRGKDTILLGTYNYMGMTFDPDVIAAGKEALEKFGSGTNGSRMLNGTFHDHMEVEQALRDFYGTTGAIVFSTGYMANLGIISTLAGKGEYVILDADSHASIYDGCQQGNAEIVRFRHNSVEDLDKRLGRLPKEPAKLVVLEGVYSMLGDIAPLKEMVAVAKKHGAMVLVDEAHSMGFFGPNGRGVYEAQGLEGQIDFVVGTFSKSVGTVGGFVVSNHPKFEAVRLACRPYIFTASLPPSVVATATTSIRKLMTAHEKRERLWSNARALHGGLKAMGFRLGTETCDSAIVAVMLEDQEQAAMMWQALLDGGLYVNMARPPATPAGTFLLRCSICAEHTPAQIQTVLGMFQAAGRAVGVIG

N[C@@H](CO)C(=O)O = tested on: T4, N[C@@H](CO)C(=O)O; assay: DTNB assay of CoASH release, Michaelis-Menten fit; assay type: biochemical, Sphingomonas paucimobilis; settings: co-substrate palmitoyl-CoA
T4 construct: full-length soluble enzyme, pET28a, C-terminal His6 tag, E. coli BL21(DE3), Ni-NTA and gel filtration, homodimer ~90 kDa, PLP holoform
Source text: (§1) DTNB assay of CoASH release, Michaelis-Menten fit on Sp SPT

[5] = tested on: T5, CCCCCCCCCCCCCCCC(=O)SCCNC(=O)CCNC(=O)[C@H](O)C(C)(C)COP(=O)(O)OP(=O)(O)OC[C@H]1O[C@@H](n2cnc3c(N)ncnc32)[C@H](O)[C@@H]1OP(=O)(O)O; assay: DTNB assay of CoASH release, Michaelis-Menten fit; assay type: biochemical, Sphingomonas paucimobilis; settings: co-substrate L-serine
T5 construct: full-length soluble enzyme, pET28a, C-terminal His6 tag, E. coli BL21(DE3), Ni-NTA and gel filtration, homodimer ~90 kDa, PLP holoform
Source text: as §1

Sp SPT [6] = target: T1, Sp SPT; assay: UV-visible spectroscopy, quinonoid peak at ~[…] nm; assay type: binding; settings: 1.5 mM analogue, 50 mM L-serine, 40 μM enzyme, 25 °C, 15 min
[7] = substrate: CCCCCCCCCCCCCCCC(=O)SCCNC(=O)CCNC(=O)[C@H](O)C(C)(C)COP(=O)(O)OP(=O)(O)OC[C@H]1O[C@@H](n2cnc3c(N)ncnc32)[C@H](O)[C@@H]1OP(=O)(O)O; assay: DTNB assay of CoASH release, Michaelis-Menten fit; assay type: biochemical, Sphingomonas paucimobilis; settings: co-substrate L-serine
Source text: as §1

[8] = substrate: N[C@@H](CO)C(=O)O; assay: DTNB assay of CoASH release, Michaelis-Menten fit; assay type: biochemical, Sphingomonas paucimobilis; settings: co-substrate palmitoyl-CoA
Source text: as §1

[9] = target: the molecule itself; assay: SEC; size exclusion chromatography of the purified enzymes; data not shown

## Cc1ncc(COP(=O)(O)O)c(C=O)c1O [pyridoxal 5′-phosphate]
Sp SPT [1]
  UV-visible spectroscopy of internal aldimine: characteristic of the holo-, PLP-bound internal aldimine form of the enzyme

## N[C@@H](CO)C(=O)O [L-serine]
Sp SPT [2]
  Kd: 1100 ± 100 µM
Sp SPT [3]
  Kd: 4700 ± 100 µM
Sp SPT [4]
  Kd: 1500 ± 100 µM

## Sp SPT (Sphingomonas paucimobilis; G385F)
N[C@@H](CO)C(=O)O
  Km: 3000 ± 500 µM
  kcat: 41 ± 2.0 × 10^-2 s^-1
  kcat/Km: 136 M⁻¹ s⁻¹
[5]
  Km: 52.2 ± 8.0 µM
  kcat: 41 ± 2.0 × 10^-2 s^-1
  kcat/Km: 7850 M⁻¹ s⁻¹

## CCCCCCCCCCCCCCCC(=O)CSCCNC(=O)CCNC(=O)[C@H](O)C(C)(C)COP(=O)(O)OP(=O)(O)OC[C@H]1O[C@@H](n2cnc3c(N)ncnc32)[C@H](O)[C@@H]1OP(=O)(O)O [S-(2-oxoheptadecyl)-CoA]
Sp SPT [6]
  UV-visible spectroscopy, quinonoid peak at ~495 nm: Addition of the analogue to the PLP-L-serine external aldimine form of the wild-type SPT

## Sp SPT (Sphingomonas paucimobilis; V246M)
N[C@@H](CO)C(=O)O
  Km: 2500 ± 200 µM
  kcat: 44 ± 1.2 × 10^-2 s^-1
  kcat/Km: 176 M⁻¹ s⁻¹
[5]
  Km: 128.0 ± 10.0 µM
  kcat: 44 ± 1.2 × 10^-2 s^-1
  kcat/Km: 3440 M⁻¹ s⁻¹

B1: Sp SPT (Sphingomonas paucimobilis) (protein)
chain: MTEAAAQPHALPADAPDIAPERDLLSKFDGLIAERQKLLDSGVTDPFAIVMEQVKSPTEAVIRGKDTILLGTYNYMGMTFDPDVIAAGKEALEKFGSGTNGSRMLNGTFHDHMEVEQALRDFYGTTGAIVFSTGYMANLGIISTLAGKGEYVILDADSHASIYDGCQQGNAEIVRFRHNSVEDLDKRLGRLPKEPAKLVVLEGVYSMLGDIAPLKEMVAVAKKHGAMVLVDEAHSMGFFGPNGRGVYEAQGLEGQIDFVVGTFSKSVGTVGGFVVSNHPKFEAVRLACRPYIFTASLPPSVVATATTSIRKLMTAHEKRERLWSNARALHGGLKAMGFRLGTETCDSAIVAVMLEDQEQAAMMWQALLDGGLYVNMARPPATPAGTFLLRCSICAEHTPAQIQTVLGMFQAAGRAVGVIG
notes: full-length soluble enzyme, pET28a, C-terminal His6 tag, E. coli BL21(DE3), Ni-NTA and gel filtration, homodimer ~90 kDa, PLP holoform
[7]
  Km: 35.6 ± 2.0 µM
  kcat: 114 ± 2.0 × 10^-2 s^-1
  kcat/Km: 32000 M⁻¹ s⁻¹
[8]
  Km: 1600 ± 90 µM
  kcat: 114 ± 2.0 × 10^-2 s^-1
  kcat/Km: 712 M⁻¹ s⁻¹

B2: Sphingomonas paucimobilis serine palmitoyltransferase V246M (mimic of hLCB2a V359M) (enzyme)
chain: MTEAAAQPHALPADAPDIAPERDLLSKFDGLIAERQKLLDSGVTDPFAIVMEQVKSPTEAVIRGKDTILLGTYNYMGMTFDPDVIAAGKEALEKFGSGTNGSRMLNGTFHDHMEVEQALRDFYGTTGAIVFSTGYMANLGIISTLAGKGEYVILDADSHASIYDGCQQGNAEIVRFRHNSVEDLDKRLGRLPKEPAKLVVLEGVYSMLGDIAPLKEMVAVAKKHGAMVLVDEAHSMGFFGPNGRGMYEAQGLEGQIDFVVGTFSKSVGTVGGFVVSNHPKFEAVRLACRPYIFTASLPPSVVATATTSIRKLMTAHEKRERLWSNARALHGGLKAMGFRLGTETCDSAIVAVMLEDQEQAAMMWQALLDGGLYVNMARPPATPAGTFLLRCSICAEHTPAQIQTVLGMFQAAGRAVGVIG
modifications: PLP cofactor covalently bound as an imine to Lys265
notes: serine palmitoyltransferase of Sphingomonas paucimobilis with V246M, made on pET 28a/Sp SPT; The PDB entries are of the wild-type parent; also called Sp SPT V246M; SPT V246M
[9]
  stoichiometry N: 2

B3: Sphingomonas paucimobilis serine palmitoyltransferase G385F (mimic of hLCB2a I504F) (enzyme)
chain: MTEAAAQPHALPADAPDIAPERDLLSKFDGLIAERQKLLDSGVTDPFAIVMEQVKSPTEAVIRGKDTILLGTYNYMGMTFDPDVIAAGKEALEKFGSGTNGSRMLNGTFHDHMEVEQALRDFYGTTGAIVFSTGYMANLGIISTLAGKGEYVILDADSHASIYDGCQQGNAEIVRFRHNSVEDLDKRLGRLPKEPAKLVVLEGVYSMLGDIAPLKEMVAVAKKHGAMVLVDEAHSMGFFGPNGRGVYEAQGLEGQIDFVVGTFSKSVGTVGGFVVSNHPKFEAVRLACRPYIFTASLPPSVVATATTSIRKLMTAHEKRERLWSNARALHGGLKAMGFRLGTETCDSAIVAVMLEDQEQAAMMWQALLDGGLYVNMARPPATPAFTFLLRCSICAEHTPAQIQTVLGMFQAAGRAVGVIG
modifications: PLP cofactor covalently bound as an imine to Lys265
notes: serine palmitoyltransferase of Sphingomonas paucimobilis with G385F, made on pET 28a/Sp SPT; The PDB entries are of the wild-type parent; also called Sp SPT G385F; SPT G385F
[9]
  stoichiometry N: 2
